Laboratory results: patent US11066455B2, “Tmem100 peptides and variants thereof and their use in treating or preventing diseases or conditions” (The Johns Hopkins University, priority 2014, dated 2021)
Changes are numbered by the printed parent chain. * marks the point of attachment. Myristoyl = CCCCCCCCCCCCCC(=O)*

Tests used:
[1] = biological target: T1, TRPA1 (Mus musculus, UniProt Q704Y3+Q8BLA8); test: Calcium imaging of DRG neurons, response to mustard oil (MO); format: cell-based; conditions: peptide 200 nM pretreatment; 10 μM MO; IB4-negative DRG neurons
T1 construct: endogenous in cells; host or cells: primary mouse DRG neurons
Procedure: (§1) Calcium imaging assays were performed as previously described (Liu et al., 2009). Cells were loaded with 2 μM fura 2-acetomethoxy ester (Molecular Probes) for 30 min in the dark at room temperature or for 45 minutes at 37° C. for DRG and cell lines, respectively. After washing, cells were imaged at 340 and 380 nm excitation to detect intracellular free calcium under a fluorescent microscope (Nikon Eclipse TE2000-S) and Lambda 10B shutter (Sutter Instrument). The cells were bathed in calcium imaging buffer (pH 7.45, 130 mM NaCl, 3 mM KCl, 2.5 mM CaCl2, 10 mM HEPES, 10 mM glucose, 1.2 mM NaHCO3, with sucrose to increase osmolarity to 290 mOsm). […] Images were processed and analyzed with NIS-Elements BR 2.30 software (Nikon). […] The data was analyzed with the experimenter blinded to the genotypes or constructs transfected.
(§2) DRG from 3 to 4-week old mice were collected in cold DH10 medium (90% DMEM/F-12, 10% FBS, 100 U/ml penicillin, and 100 μg/ml Streptomycin, Gibco) and treated with enzyme solution in HBSS containing collagenase (1.65 mg/mL, Worthington CLS I) and dispase (3.55 mg/mL, GIBCO 17105-041) at 37° C. for 30 minutes. […] This efficiency was determined by mCherry(+) divided by total number of cells in the bright fields. […]

[2] = biological target: T2, TRPV1 (Mus musculus, UniProt Q704Y3); test: Calcium imaging of DRG neurons, response to capsaicin (CAP); format: cell-based; conditions: peptide 200 nM pretreatment; 100 nM CAP; IB4-negative DRG neurons
T2 construct: calcium imaging data from the T100-Mut-treated (200 nM) DRG neurons; endogenous in cells; host or cells: primary mouse DRG neurons
Procedure: as §1, §2

[3] = tested on: capsaicin-induced nocifensive behavior in WT mice; test: Capsaicin injection: acute nocifensive behavior; format: in vivo, mouse; conditions: capsaicin 0.6 μg, peptide 2 mM
Procedure: Mice were injected with 6 μL of capsaicin (0.1 μg/μL in normal saline/10% ethanol/0.5% Tween 80) in the hindpaws. The mice were placed in a plexiglass cylinder, and the total time spent licking and flinching was recorded for the first 10 minutes after injection.
(§3) The sequence from the last 28 amino acids of the C-terminus of the Tmem100-3Q mutant protein was synthesized and myristoylated at its N-terminus (myr-[…]-COOH) (SEQ ID NO: 8) by Twentyfirst Century Biochemicals. […] For the calcium imaging assay, the peptides were added to the calcium imaging buffer with a final concentration of 200 nM and incubated for at least […] at room temperature. For the mice behavioral assays, the peptides (5 μL, 2 mM) were injected subcutaneously in the hindpaw at least 30 minutes before testing. For the rat behavior assays, human T100-3Q (h-T100), a palmitoylated cell permeable peptide mutated based on the C terminus of human sequence in Tmem100, was applied. The sequence is Palmitoyl-[…]-COOH (SEQ ID NO: 7).

[4] = tested on: ongoing neuropathic pain in SNL rats; test: Conditioned place preference test for ongoing pain in SNL rats; format: in vivo, rat; conditions: intrathecal 50 μM, 10 μl; scramble peptide-paired chamber as comparison
Description: Ongoing, or spontaneous, pain, which is most bothersome to patients, is difficult to treat and difficult to study in animals. The conditioned place preference test has been successfully developed to reveal the presence of non-evoked, ongoing pain and pain relief based on the preference of an animal for the context paired with a pain-relief treatment. The conditioned place preference can also capture the aversive aspects of pain. Strikingly, many studies have shown that the rodent conditioned place preference test accurately reflects the effectiveness of human clinical treatments. Therefore, this test is a powerful approach to investigate the potential effectiveness of new treatments and mechanisms for relief of ongoing pain. Two previous studies have examined the role of TRPA1 in ongoing pain by the conditioned place preference test. […] Because the antagonists used in those studies (HC030031 and Chem5861528) target TRPA1 monomers, it is possible that T100-Mut can inhibit ongoing pain by modulating the TRPA1/V1 complex. This possibility was tested in rodents with SNL-induced ongoing pain using the conditioned place preference test. […] Systemic administration of gabapentin, an analgesic that is known to alleviate neuropathic pain, was used as a positive control (FIG. 16B).

[5] = tested on: T3, TRPA1; test: MO-evoked Ca2+ influx into CHO cells expressing TRPA1+TRPV1; format: cell-based; conditions: TRPA1+TRPV1+Tmem100-3Q (1:1:4) CHO cells
T3 construct: MO (10 μM)-evoked Ca2+ influx; other: TRPA1+TRPV1+Tmem100-3Q (1:1:4) CHO cells; MO (10 μM)-gated whole-cell current density; other: Vh=-60 mV; TRPA1+TRPV1+Tmem100-3Q (1:1:4) CHO cells; MO (10 μM)-induced single-channel activity (NPo); co-expressed with TRPA1+TRPV1 (1:1:4) in CHO cells
Procedure: Calcium imaging assays were performed as previously described (Liu et al., 2009). Cells were loaded with 2 μM fura 2-acetomethoxy ester (Molecular Probes) for 30 min in the dark at room temperature or for 45 minutes at 37° C. for DRG and cell lines, respectively. After washing, cells were imaged at 340 and 380 nm excitation to detect intracellular free calcium under a fluorescent microscope (Nikon Eclipse TE2000-S) and Lambda 10B shutter (Sutter Instrument). The cells were bathed in calcium imaging buffer (pH 7.45, 130 mM NaCl, 3 mM KCl, 2.5 mM CaCl2, 10 mM HEPES, 10 mM glucose, 1.2 mM NaHCO3, with sucrose to increase osmolarity to 290 mOsm). The reagents and buffers were applied through a gravity perfusion system at a rate of […], including mustard oil (Sigma 377430), cinnamaldehyde (Sigma C80687), menthol (Sigma M2780), and capsaicin (Sigma M2028). Cells with high baseline 340/380 values (>1.5) were excluded for analysis. For DRG neurons, IB4 staining was performed in the chamber with the dilution of 1:200 (Molecular Probes 121412) for 160 seconds before washing off at the end of each test. Images were processed and analyzed with NIS-Elements BR 2.30 software (Nikon). A responsive cell was defined as one that with greater than a 20% increase in the 340/380 ratio above the baseline. […] The data was analyzed with the experimenter blinded to the genotypes or constructs transfected.

[6] = tested on: TRPA1; test: Calcium imaging of HEK293T cells expressing TRPA1 and TRPV1 (MO or CA); format: cell-based; conditions: HEK293T TRPA1+TRPV1 with Tmem100
Procedure: Calcium imaging assays were performed as previously described (Liu et al., 2009). Cells were loaded with 2 μM fura 2-acetomethoxy ester (Molecular Probes) for 30 min in the dark at room temperature or for 45 minutes at 37° C. for DRG and cell lines, respectively. After washing, cells were imaged at 340 and 380 nm excitation to detect intracellular free calcium under a fluorescent microscope (Nikon Eclipse TE2000-S) and Lambda 10B shutter (Sutter Instrument). The cells were bathed in calcium imaging buffer (pH 7.45, 130 mM NaCl, 3 mM KCl, 2.5 mM CaCl2, 10 mM HEPES, 10 mM glucose, 1.2 mM NaHCO3, with sucrose to increase osmolarity to 290 mOsm). The reagents and buffers were applied through a gravity perfusion system at a rate of […], including mustard oil (Sigma 377430), cinnamaldehyde (Sigma C80687), menthol (Sigma M2780), and capsaicin (Sigma M2028). Cells with high baseline 340/380 values (>1.5) were excluded for analysis. For DRG neurons, IB4 staining was performed in the chamber with the dilution of 1:200 (Molecular Probes 121412) for 160 seconds before washing off at the end of each test. Images were processed and analyzed with NIS-Elements BR 2.30 software (Nikon). A responsive cell was defined as one that with greater than a 20% increase in the 340/380 ratio above the baseline. Intracellular calibration for calcium was performed as previously described (Akopian et al., 2007). The data was analyzed with the experimenter blinded to the genotypes or constructs transfected.
DRG from 3 to 4-week old mice were collected in cold DH10 medium (90% DMEM/F-12, 10% FBS, 100 U/ml penicillin, and 100 μg/ml Streptomycin, Gibco) and treated with enzyme solution in HBSS containing collagenase (1.65 mg/mL, Worthington CLS I) and dispase (3.55 mg/mL, GIBCO 17105-041) at 37° C. for 30 minutes. After trituration and centrifugation, cells were resuspended in DH10, plated on glass coverslips coated with poly-D-lysine (0.5 mg/ml, Stoughton, Mass.) and laminin (10 μg/ml, Invitrogen), and cultured overnight in an incubator at 37° C. The neurons were tested within 24 hours. HEK293T, COS-7, and CHO cells were cultured in a medium consisting of 90% DMEM, 10% FBS, 100 U/mL penicillin, and 100 μg/ml Streptomycin. GlutaMAX (Gibco 35050-061) was also added for CHO cells. For calcium imaging, the cells were plated on glass coverslips coated with poly-D-lysine (0.5 mg/ml, Stoughton, Mass.). In the HEK cell studies the denominator is the cells expressing both TRPA1, TRPV1, and the designated constructs (i.e. Tmem100 or Tmem100-3Q mutant). mCherry:TRPV1:Tmem100 was transfected in 1:8:8 ratio into TRPA1 stable cell line (obtained from N. Tigue from GlaxoSmithKline) and used mCherry as the marker for the cells expressing the constructs 18 hours after transfection with Lipofectamine 2000. The transfection efficiency for Tmem100+TRPV1+TRPA1 triple-positive cells is 27±3%. This efficiency was determined by mCherry(+) divided by total number of cells in the bright fields.
as §3

T1 sequence (Q8BLA8 whole entry): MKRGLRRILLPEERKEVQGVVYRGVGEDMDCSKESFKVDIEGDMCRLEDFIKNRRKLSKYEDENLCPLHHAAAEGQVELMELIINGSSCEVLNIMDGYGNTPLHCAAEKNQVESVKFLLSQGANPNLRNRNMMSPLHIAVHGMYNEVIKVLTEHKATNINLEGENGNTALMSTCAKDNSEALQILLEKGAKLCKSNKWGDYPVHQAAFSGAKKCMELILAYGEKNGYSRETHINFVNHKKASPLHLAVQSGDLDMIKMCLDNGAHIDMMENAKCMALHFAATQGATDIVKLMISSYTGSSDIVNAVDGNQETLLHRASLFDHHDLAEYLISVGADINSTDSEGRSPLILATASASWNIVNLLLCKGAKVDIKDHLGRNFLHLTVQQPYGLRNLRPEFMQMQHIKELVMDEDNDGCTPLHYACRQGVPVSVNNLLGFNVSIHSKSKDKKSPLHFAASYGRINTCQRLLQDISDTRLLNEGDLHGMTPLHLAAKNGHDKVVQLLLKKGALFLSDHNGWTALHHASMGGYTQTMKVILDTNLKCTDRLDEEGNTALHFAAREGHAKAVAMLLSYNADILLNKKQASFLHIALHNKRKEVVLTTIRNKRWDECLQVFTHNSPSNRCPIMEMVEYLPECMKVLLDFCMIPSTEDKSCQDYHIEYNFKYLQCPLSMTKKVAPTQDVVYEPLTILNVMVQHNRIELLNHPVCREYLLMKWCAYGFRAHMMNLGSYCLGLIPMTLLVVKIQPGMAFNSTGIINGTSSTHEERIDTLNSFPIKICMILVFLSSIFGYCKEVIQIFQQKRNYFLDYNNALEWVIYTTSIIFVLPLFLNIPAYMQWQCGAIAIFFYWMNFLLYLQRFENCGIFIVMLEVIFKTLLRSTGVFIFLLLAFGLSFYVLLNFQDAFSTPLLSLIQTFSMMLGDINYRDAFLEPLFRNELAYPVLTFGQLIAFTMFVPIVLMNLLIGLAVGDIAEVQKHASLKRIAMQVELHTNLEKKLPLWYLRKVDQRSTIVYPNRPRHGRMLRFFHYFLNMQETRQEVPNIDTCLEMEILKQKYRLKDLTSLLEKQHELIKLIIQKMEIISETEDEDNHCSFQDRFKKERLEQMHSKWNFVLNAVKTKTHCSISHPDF
T1 sequence (Q704Y3 whole entry): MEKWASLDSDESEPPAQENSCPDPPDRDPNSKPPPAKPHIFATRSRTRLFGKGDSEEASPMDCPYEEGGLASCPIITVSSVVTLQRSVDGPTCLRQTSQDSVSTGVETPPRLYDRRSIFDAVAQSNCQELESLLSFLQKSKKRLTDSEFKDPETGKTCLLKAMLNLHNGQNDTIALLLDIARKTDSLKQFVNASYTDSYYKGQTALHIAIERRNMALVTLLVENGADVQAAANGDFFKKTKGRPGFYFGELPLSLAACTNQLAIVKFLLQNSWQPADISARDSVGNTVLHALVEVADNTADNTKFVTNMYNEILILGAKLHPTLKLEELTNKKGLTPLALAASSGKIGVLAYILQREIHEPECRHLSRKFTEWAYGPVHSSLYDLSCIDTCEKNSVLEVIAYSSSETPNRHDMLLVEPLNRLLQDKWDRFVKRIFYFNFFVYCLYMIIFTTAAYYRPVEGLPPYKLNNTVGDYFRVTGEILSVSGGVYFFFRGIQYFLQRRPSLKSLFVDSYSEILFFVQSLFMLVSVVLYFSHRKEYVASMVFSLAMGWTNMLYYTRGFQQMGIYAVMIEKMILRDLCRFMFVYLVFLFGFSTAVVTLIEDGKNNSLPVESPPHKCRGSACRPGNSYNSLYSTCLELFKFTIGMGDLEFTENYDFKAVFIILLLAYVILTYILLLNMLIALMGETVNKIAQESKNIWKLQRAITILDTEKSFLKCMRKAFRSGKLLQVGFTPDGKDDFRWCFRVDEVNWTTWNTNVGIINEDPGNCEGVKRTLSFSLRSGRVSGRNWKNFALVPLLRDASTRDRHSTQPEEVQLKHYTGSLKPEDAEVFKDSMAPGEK
T2 sequence (Q704Y3 whole entry): as above

## myr-QRVLEQVLQNWSRRANVKQAQKFQVKCT-COOH (Myristoyl-QRVLEQVLQNWSRRANVKQAQKFQVKCT-OH; SMILES CCCCCCCCCCCCCC(=O)N[C@@H](CCC(N)=O)C(=O)N[C@@H](CCCNC(=N)N)C(=O)N[C@H](C(=O)N[C@@H](CC(C)C)C(=O)N[C@@H](CCC(=O)O)C(=O)N[C@@H](CCC(N)=O)C(=O)N[C@H](C(=O)N[C@@H](CC(C)C)C(=O)N[C@@H](CCC(N)=O)C(=O)N[C@@H](CC(N)=O)C(=O)N[C@@H](Cc1c[nH]c2ccccc12)C(=O)N[C@@H](CO)C(=O)N[C@@H](CCCNC(=N)N)C(=O)N[C@@H](CCCNC(=N)N)C(=O)N[C@@H](C)C(=O)N[C@@H](CC(N)=O)C(=O)N[C@H](C(=O)N[C@@H](CCCCN)C(=O)N[C@@H](CCC(N)=O)C(=O)N[C@@H](C)C(=O)N[C@@H](CCC(N)=O)C(=O)N[C@@H](CCCCN)C(=O)N[C@@H](Cc1ccccc1)C(=O)N[C@@H](CCC(N)=O)C(=O)N[C@H](C(=O)N[C@@H](CCCCN)C(=O)N[C@@H](CS)C(=O)N[C@H](C(=O)O)[C@@H](C)O)C(C)C)C(C)C)C(C)C)C(C)C) [scrambled]
[1]
  percentage of DRG neurons responding to MO: 12±1.3%
[2]
  percentage of DRG neurons responding to CAP: 16±1.3%
[3]
  acute nocifensive behaviors induced by intradermal capsaicin injection: 70 ± 11 s
[4]
  conditioned place preference: time in drug-paired chamber, SNL rats: no effect

B1: Tmem100-3Q mutant (full-length, mouse) (protein)
chain: MTEESTKENLGAPKSPTPVTMEKNPKREVVVTTGPLVSEVQLMAATGGAELSCYRCIIPFAVVVFITGIVVTAVAYSFNSHGSIISIFGLVLLSSGLFLLASSALCWKVRQRNKKVQQQESQTALVVNQRCLFA
[5]
  MO (10 μM)-evoked Ca2+ influx: 321 ± 18.2 nM

B2: Tmem100: 134-amino acid two-transmembrane protein, regulator of TRPA1 (SEQ ID NO: 1/2), expressed in cells (protein, listed as Homo sapiens, listed as Mus musculus)
chain 1: MTEEPIKEILGAPKAHMAATMEKSPKSEVVITTVPLVSEIQLMAATGGTELSCYRCIIPFAVVVFIAGIVVTAVAYSFNSHGSIISIFGLVVLSSGLFLLASSALCWKVRQRSKKAKRRESQTALVANQRSLFA
chain 2: B1 chain with Q117K, Q118R, Q119R
[6]; 100 nM MO
  percentage of cells responsive to MO: 20%
[6]; 5 μM CA
  percentage of cells responsive to CA: 30%
